Measurements from article PMC8408612.
Values belong to the substance of their own block, whether it stands above or below them.

Tests used:
Test in all cases: co-IP
[1] = target: endogenous dynein intermediate chain (DIC) of COS7 cells (African green monkey (endogenous in COS7))
[2] = target: endogenous mouse dynein intermediate chain (DIC) (mouse (endogenous in sciatic nerve and primary motor neurons)) (UniProt O88485)
[3] = target: Flag-CRMP4 (UniProt Q14195)

UniProt O88485, sequence (O88485 whole entry): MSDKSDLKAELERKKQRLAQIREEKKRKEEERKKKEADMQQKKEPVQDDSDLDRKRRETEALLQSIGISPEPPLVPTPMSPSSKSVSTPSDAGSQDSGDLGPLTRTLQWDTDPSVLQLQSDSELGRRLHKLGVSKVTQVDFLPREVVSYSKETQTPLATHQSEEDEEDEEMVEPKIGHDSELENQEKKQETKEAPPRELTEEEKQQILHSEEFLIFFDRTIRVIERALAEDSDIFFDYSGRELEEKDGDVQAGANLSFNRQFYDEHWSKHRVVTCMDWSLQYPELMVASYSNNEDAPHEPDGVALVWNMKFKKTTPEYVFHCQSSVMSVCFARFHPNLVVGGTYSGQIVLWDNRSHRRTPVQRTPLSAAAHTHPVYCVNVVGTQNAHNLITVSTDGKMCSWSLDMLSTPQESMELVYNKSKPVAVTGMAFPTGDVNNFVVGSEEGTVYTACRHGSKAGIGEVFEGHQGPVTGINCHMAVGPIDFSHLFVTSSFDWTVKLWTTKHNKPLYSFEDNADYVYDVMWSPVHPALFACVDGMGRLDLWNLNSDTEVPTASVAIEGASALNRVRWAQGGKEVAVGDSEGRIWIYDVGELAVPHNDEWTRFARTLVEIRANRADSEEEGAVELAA
Flag-CRMP4, sequence (Q14195 whole entry): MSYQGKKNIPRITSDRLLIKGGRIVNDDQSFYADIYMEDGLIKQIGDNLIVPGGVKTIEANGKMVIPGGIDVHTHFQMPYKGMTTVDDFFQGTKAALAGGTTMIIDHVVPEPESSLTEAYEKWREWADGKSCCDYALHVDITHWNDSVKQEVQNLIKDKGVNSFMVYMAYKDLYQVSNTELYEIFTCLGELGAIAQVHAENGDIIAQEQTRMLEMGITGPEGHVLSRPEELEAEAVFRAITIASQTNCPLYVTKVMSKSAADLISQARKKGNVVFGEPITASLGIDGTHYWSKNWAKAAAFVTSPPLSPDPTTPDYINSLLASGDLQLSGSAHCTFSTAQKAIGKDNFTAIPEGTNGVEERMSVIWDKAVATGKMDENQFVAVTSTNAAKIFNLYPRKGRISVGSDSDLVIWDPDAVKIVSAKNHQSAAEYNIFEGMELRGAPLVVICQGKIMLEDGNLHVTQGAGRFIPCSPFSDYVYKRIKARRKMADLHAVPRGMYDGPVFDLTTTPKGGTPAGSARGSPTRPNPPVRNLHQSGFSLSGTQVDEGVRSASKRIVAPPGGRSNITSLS

CRMP4 band normalised to DIC band (mean) [1]: 1
Substance: Flag-CRMP4 (from UniProt Q14195 1-570) (natural protein)

CRMP4 band normalised to DIC band (mean), SOD1G93A sciatic nerve [2]: 1.48 | CRMP4 band normalised to DIC band (mean), WT sciatic nerve [2]: 0.28
Substance: endogenous mouse CRMP4 (from UniProt Q62188 1-570) (natural protein)

dynactin band normalised to Flag-CRMP4 band (mean), no peptide (Fig 4E) [3]: 0.77 | dynactin band normalised to Flag-CRMP4 band (mean), no peptide (Fig 4G) [3]: 1.92 | dynactin band normalised to Flag-CRMP4 band (mean), with peptide-1 [3]: 1.44 | dynactin band normalised to Flag-CRMP4 band (mean), with peptide-2 [3]: 1.34 | dynactin band normalised to Flag-CRMP4 band (mean), with peptide-3 [3]: 1.8 | dynactin band normalised to Flag-CRMP4 band (mean), with peptide-4 [3]: 1.13 | dynactin band normalised to Flag-CRMP4 band (mean), with peptides 1-4 (Fig 4E) [3]: 0.17
Substance: dynactin (p150), endogenous in COS7 cells (natural protein)

Further lines, the substance ahead of its results:

Substance: CRMP4 (transfected together with AAV9-GFP or AAV9-GFP-50aa, Figure 4H) (from UniProt Q14195 1-570) (natural protein)
CRMP4 band normalised to DIC band (mean), cells with GFP-50aa [1]: 0.54 | CRMP4 band normalised to DIC band (mean), control cells with GFP [1]: 1

Substance: mutated Flag-CRMP4-I141V (from UniProt Q14195 1-570) (natural protein)
CRMP4 band normalised to DIC band (mean) [1]: 1.62

Substance: full-length GFP-CRMP4 (from UniProt Q14195 1-570) (natural protein)
CRMP4 band co-precipitated with DIC (densitometry, mean) [1]: 1.47
